Results published in patent publication US20240360242A1 (KISOJI BIOTECHNOLOGY, published 2024).

T1: recombinant human IGFBP-1 (human, UniProt P08833 26-259)
T1 construct: also called rhIGFB-1
T1 sequence (looked up): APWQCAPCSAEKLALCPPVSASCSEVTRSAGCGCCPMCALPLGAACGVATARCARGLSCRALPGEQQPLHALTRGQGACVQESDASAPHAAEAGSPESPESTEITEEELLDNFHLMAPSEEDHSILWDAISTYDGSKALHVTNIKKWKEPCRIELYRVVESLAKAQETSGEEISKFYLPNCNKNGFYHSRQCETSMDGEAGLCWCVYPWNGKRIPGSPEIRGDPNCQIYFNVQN

T2: recombinant human EpCAM (human, UniProt P16422 24-265)
T2 construct: also called rhEpCAM
T2 sequence (looked up): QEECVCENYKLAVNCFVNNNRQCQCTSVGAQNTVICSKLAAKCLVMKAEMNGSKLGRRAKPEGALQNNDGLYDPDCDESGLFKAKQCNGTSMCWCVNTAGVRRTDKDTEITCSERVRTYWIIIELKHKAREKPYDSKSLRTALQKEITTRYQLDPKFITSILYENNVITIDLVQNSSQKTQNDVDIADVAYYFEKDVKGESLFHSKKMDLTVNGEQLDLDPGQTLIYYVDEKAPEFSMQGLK

T3: human TROP2 on cells (human, UniProt P09758 27-323)
T3 construct: Full human TROP2, either transiently transfected into HEK or CHO cells or endogenous on cancer cell lines; also called HEK-TROP2; CHO-TROP2
T3 sequence: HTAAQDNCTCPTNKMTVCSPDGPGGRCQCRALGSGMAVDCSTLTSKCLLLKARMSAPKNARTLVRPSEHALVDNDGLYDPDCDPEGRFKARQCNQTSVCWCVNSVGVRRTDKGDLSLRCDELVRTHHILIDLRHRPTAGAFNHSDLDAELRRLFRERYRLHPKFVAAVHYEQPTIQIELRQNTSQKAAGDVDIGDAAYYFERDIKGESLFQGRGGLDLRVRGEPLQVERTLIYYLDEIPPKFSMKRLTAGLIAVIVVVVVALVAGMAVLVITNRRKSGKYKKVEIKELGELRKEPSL

T4: recombinant human TROP2 extracellular domain (aa 1-274) comprising His tag (human, UniProt P09758 27-274)
T4 construct: Used here for all assays on recombinant human TROP2 (ELISA, immunoblot, SPR, crystal), although only some of them name the catalogue number; also called human recombinant TROP2; recombinant human TROP2 protein; not shown: His tag
T4 sequence: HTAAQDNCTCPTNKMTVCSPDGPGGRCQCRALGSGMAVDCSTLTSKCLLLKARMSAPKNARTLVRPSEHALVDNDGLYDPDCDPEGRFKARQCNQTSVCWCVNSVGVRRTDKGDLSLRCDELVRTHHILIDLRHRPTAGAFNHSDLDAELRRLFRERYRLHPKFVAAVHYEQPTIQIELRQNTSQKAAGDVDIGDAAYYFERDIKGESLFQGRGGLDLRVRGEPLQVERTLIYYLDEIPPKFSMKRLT


Experiments:
[1] = target: T1, recombinant human IGFBP-1; assay: ELISA
[2] = target: T2, recombinant human EpCAM; assay: ELISA
[3] = target: T3, human TROP2 on cells; assay: flow cytometry, 100 nM antibody, transiently transfected HEK cells, APC anti-human Fc
Outline: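 HEK parental cells transiently transfected (lipofectamine) with human TROP2 truncation mutants, harvested 24 h later and Fc-blocked 10 min at RT. Anti-TROP2 sdAbs at 100 nM bound 30 min on ice, then detected with APC anti-human Fc (30 min) and 7-AAD added for viability.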

[4] = target: T4, recombinant human TROP2 extracellular …; assay: competitive ELISA on coated recombinant human TROP2, competitor KD004-His, anti-His-HRP
Procedure: The epitope characterization was assessed by competitive ELISA (FIG. 8 and FIG. 9). Microplates were coated with human recombinant TROP2 at 4° C. overnight. After washing, plates were blocked with blocking buffer (PBS+2% BSA), for 1 hour at room temperature. Meanwhile, the dilution for anti-TROP2 VHH sdAbs was prepared with blocking buffer making two different dilutions depending on the tag. For sdAbs with His tag, the antibody was diluted to 28571.4 pM. For sdAbs without tag, antibodies were serially diluted from 2857142.9 pM to 0.29 pM (8 dilutions, 10×). After that, equal volume of the his-tagged sdAbs and serial diluted non-tagged sdAbs were mixed, to make the final concentration of his-tagged sdAbs 14285.7 pM and non-tagged sdAbs from 1428571.4 pM to 0.14 pM. After washing two times, the mixed antibody contents were added into the wells and the plates were incubated for 2 hours at room temperature. The HRP-conjugated anti-6× His was diluted to 1:5000 and added to the wells after washing three times. Any unbound conjugate was removed by washing after 1 hour incubation at room temperature, and the colorimetric reaction was performed by adding the same volume of Supersignal ELISA Pico Luminol/Enhancer and SuperSignal ELISA Pico Stable Peroxide Solution and detected on SpectraMax i3x Microplate Reader. Positive and negative controls were included in each plate.

binding result [1] | binding result [2] | binding result [3] | IC50 (read off the curve) [4] | Binder
no binding | no binding | binds | – | KD007 (antibody, human IgG1, V domains shown, also called anti-TROP2 sdAb KD007) VH: QVQLQESGGGLVQPGGSLRLSCAASGFAFSFYAMAWYRQAPGKQRDMVATITAYGNTNYADSVKGRFTTSRDNAKNTVYLQMNSLKPEDTAVYVCNANLPSASHNYWGQGTQVTVSS
– | – | – | ~60 nM | KD004 (antibody, human IgG1, V domains shown, also called anti-TROP2 sdAb KD004) VH: QVQLQESGGGLVQPGRSLRLSCAASGFTFSGSDMSWVRQAPGKGPEWVSYITGSGTTYYPDSVKGRFTTSRDNAKNMLYLQMNSLKPDDTALYRCAKARLTDSHYVEDAWGQGTQVTVSS
